Laboratory results from the supplement of paper PMC7125110.
± gives the standard error. Variants at the floor of the assay were thinned out.

B1: glmS ribozyme (parent)
chain: AUAAAAGCGCCAGAACUACAGAAAUGUAGUUGACGAGGAGGAGGUUUAUCGAAUUUUCGGCGGAUGCCUCCAAA

Experiments:
Settings in all cases: with glucosamine-6-phosphate
[1] = variants of: B1; experiment: self-cleavage kobs at 40 uM GlcN6P; higher = faster cleavage; RNA array
Summary of the method: (§1)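 kcat and KM were obtained from weighted Michaelis–Menten fits across concentrations of kobs values. Those came from one- or two-exponential decay fits to per-tile medians normalised to baseline and to non-cleaving reference variants. The variants were barcoded ribozymes transcribed in situ by E. coli RNA polymerase on sequenced MiSeq chips and tracked through a hybridised Cy3 probe at 37 °C, with 40 μM to 10 mM glucosamine-6-phosphate in HEPES/KCl/Mg(OAc)2 buffer flowed in.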

[2] = variants of: B1; experiment: self-cleavage kobs at 160 uM GlcN6P; higher = faster cleavage; RNA array
Summary of the method: as §1

[3] = variants of: B1; experiment: self-cleavage kobs at 10000 uM GlcN6P; higher = faster cleavage; RNA array
Summary of the method: as §1

[4] = variants of: B1; experiment: self-cleavage kobs at 640 uM GlcN6P; higher = faster cleavage; RNA array
Summary of the method: as §1

[5] = variants of: B1; experiment: self-cleavage kobs at 2500 uM GlcN6P; higher = faster cleavage; RNA array
Summary of the method: as §1

Variant | self-cleavage kobs at 40 uM GlcN6P [1] | self-cleavage kobs at 160 uM GlcN6P [2] | self-cleavage kobs at 10000 uM GlcN6P [3] | self-cleavage kobs at 640 uM GlcN6P [4] | self-cleavage kobs at 2500 uM GlcN6P [5]
A42U C71G | < 1e-05 s⁻¹ | < 1e-05 s⁻¹ | 3.51e-05 ± 1e-05 s⁻¹ | – | –
C34U G38U | < 1e-05 s⁻¹ | < 1e-05 s⁻¹ | < 1e-05 s⁻¹ | < 1e-05 s⁻¹ | –
G29A A39U U69A | < 1e-05 s⁻¹ | – | – | – | –
A14U A36C | < 1e-05 s⁻¹ | – | < 1e-05 s⁻¹ | < 1e-05 s⁻¹ | –
A6C G41A | < 1e-05 s⁻¹ | – | – | < 1e-05 s⁻¹ | < 1e-05 s⁻¹
G35A G40C | < 1e-05 s⁻¹ | < 1e-05 s⁻¹ | < 1e-05 s⁻¹ | < 1e-05 s⁻¹ | < 1e-05 s⁻¹
A53U U56G | 0.000405 ± 6.8e-05 s⁻¹ | 0.000558 ± 0.00015 s⁻¹ | 0.0151 ± 0.004 s⁻¹ | 0.00241 ± 0.00042 s⁻¹ | 0.00421 ± 0.0011 s⁻¹
G41U C68A | < 1e-05 s⁻¹ | < 1e-05 s⁻¹ | < 1e-05 s⁻¹ | < 1e-05 s⁻¹ | < 1e-05 s⁻¹
C8A G38U C50G | 4.1e-05 ± 2e-05 s⁻¹ | – | – | – | –
G29C A42U U65C | < 1e-05 s⁻¹ | – | < 1e-05 s⁻¹ | – | < 1e-05 s⁻¹
C16U U31C A36G G41C | < 1e-05 s⁻¹ | – | < 1e-05 s⁻¹ | – | < 1e-05 s⁻¹
U45C A53G C67G C68A | 3.17e-05 ± 1.3e-05 s⁻¹ | – | 8.22e-05 ± 1.3e-05 s⁻¹ | – | –
C11G U56G A64U | < 1e-05 s⁻¹ | < 1e-05 s⁻¹ | – | – | < 1e-05 s⁻¹
G37U G40U C67G | < 1e-05 s⁻¹ | – | – | < 1e-05 s⁻¹ | < 1e-05 s⁻¹
C16G G41C C68G | < 1e-05 s⁻¹ | – | < 1e-05 s⁻¹ | – | –
C11U C50G U65A C68A | 8.61e-05 ± 2.8e-05 s⁻¹ | – | – | – | –
A14G C16U | 0.00189 ± 0.00023 s⁻¹ | 0.0032 ± 0.0007 s⁻¹ | 0.0726 ± 0.02 s⁻¹ | 0.00488 ± 0.00082 s⁻¹ | 0.00522 ± 0.0012 s⁻¹
A15G U54A G62C U65A | < 1e-05 s⁻¹ | – | < 1e-05 s⁻¹ | < 1e-05 s⁻¹ | < 1e-05 s⁻¹
C68U U69G C71A | < 1e-05 s⁻¹ | – | – | – | –
G51A U69C | < 1e-05 s⁻¹ | – | < 1e-05 s⁻¹ | – | –
A14G A53G | 0.00182 ± 0.00029 s⁻¹ | 0.00412 ± 0.00073 s⁻¹ | 0.0452 ± 0.013 s⁻¹ | 0.0226 ± 0.0043 s⁻¹ | 0.0146 ± 0.0045 s⁻¹
G9A U30C U31C C50A | < 1e-05 s⁻¹ | < 1e-05 s⁻¹ | < 1e-05 s⁻¹ | < 1e-05 s⁻¹ | –
U45A A53G U55G | 0.00113 ± 0.00021 s⁻¹ | – | 0.0551 ± 0.018 s⁻¹ | – | –

Variant | self-cleavage kobs at 40 uM GlcN6P [1] | self-cleavage kobs at 160 uM GlcN6P [2] | self-cleavage kobs at 10000 uM GlcN6P [3] | self-cleavage kobs at 640 uM GlcN6P [4] | self-cleavage kobs at 2500 uM GlcN6P [5]
G32C G40A | < 1e-05 s⁻¹ | < 1e-05 s⁻¹ | 1.99e-05 ± 7.3e-06 s⁻¹ | – | –
C8A A14G C58U | < 1e-05 s⁻¹ | – | < 1e-05 s⁻¹ | – | –
G9C U47C A53G G62A C68G | < 1e-05 s⁻¹ | – | < 1e-05 s⁻¹ | – | –
C8G G13A G37U G44C A53U G63U | < 1e-05 s⁻¹ | – | – | – | –
A14G G29U C34U | < 1e-05 s⁻¹ | – | – | – | –
C10A G40U U54C | < 1e-05 s⁻¹ | – | < 1e-05 s⁻¹ | – | –
A12U G29A A39G A53U | 0.000581 ± 0.00016 s⁻¹ | – | 0.0117 ± 0.0041 s⁻¹ | – | –
G9U G41U A42G A64U C71U | < 1e-05 s⁻¹ | – | < 1e-05 s⁻¹ | – | –
C34U A64C | < 1e-05 s⁻¹ | < 1e-05 s⁻¹ | < 1e-05 s⁻¹ | – | –
C16A G40U A48U | < 1e-05 s⁻¹ | – | < 1e-05 s⁻¹ | – | –
G37U A52U | < 1e-05 s⁻¹ | – | – | < 1e-05 s⁻¹ | < 1e-05 s⁻¹
G9U C67G | < 1e-05 s⁻¹ | < 1e-05 s⁻¹ | – | – | < 1e-05 s⁻¹
C8G U30A | < 1e-05 s⁻¹ | < 1e-05 s⁻¹ | < 1e-05 s⁻¹ | < 1e-05 s⁻¹ | –
A6G G32A U49G U55A | < 1e-05 s⁻¹ | – | < 1e-05 s⁻¹ | – | –
U49C U65C | < 1e-05 s⁻¹ | – | < 1e-05 s⁻¹ | < 1e-05 s⁻¹ | –
G7U G51A | < 1e-05 s⁻¹ | < 1e-05 s⁻¹ | < 1e-05 s⁻¹ | – | < 1e-05 s⁻¹
G41U A42U C50G | < 1e-05 s⁻¹ | – | – | < 1e-05 s⁻¹ | –
G9C G63C | < 1e-05 s⁻¹ | < 1e-05 s⁻¹ | – | < 1e-05 s⁻¹ | < 1e-05 s⁻¹
A39C A42U C67G | < 1e-05 s⁻¹ | – | – | – | < 1e-05 s⁻¹
C34A U56A | < 1e-05 s⁻¹ | < 1e-05 s⁻¹ | – | < 1e-05 s⁻¹ | < 1e-05 s⁻¹
U47A U54C | 0.000843 ± 0.0002 s⁻¹ | 0.00125 ± 0.00029 s⁻¹ | – | 0.00582 ± 0.0015 s⁻¹ | 0.014 ± 0.0038 s⁻¹
C10A A33C A64C | < 1e-05 s⁻¹ | – | < 1e-05 s⁻¹ | – | < 1e-05 s⁻¹
